{"source": "patent US7732563B2", "about": "“Cloning, sequencing and expression of a gene encoding an eukaryotic amino acid racemase, and diagnostic, therapeutic, and vaccination applications of parasite and viral mitogens” (priority 1999, dated 2010)", "molecules": {"B1": {"name": "rTcPA45: recombinant T. cruzi polyclonal activator 45, B-cell mitogen and proline racemase, codons 30-423 with C-terminal 6×His tag, from E. coli (protein)", "chain": "RTGQEKLLFDQKYKIIKGEKKEKKKNQRANRREHQQKREIMRFKKSFTCIDMHTEGEAARIVTSGLPHIPGSNMAEKKAYLQENMDYLRRGIMLEPRGHDDMFGAFLFDPIEEGADLGMVFMDTGGYLNMCGHNSIAAVTAAVETGIVSVPAKATNVPVVLDTPAGLVRGTAHLQSGTESEVSNASIINVPSFLYQQDVVVVLPKPYGEVRVDIAFGGNFFAIVPAEQLGIDISVQNLSRLQEAGELLRTEINRSVKVQHPQLPHINTVDCVEIYGPPTNPEANYKNVVIFGNRQADRSPCGTGTSAKMATLYAKGQLRIGETFVYESILGSLFQGRVLGEERIPGVKVPVTKDAEEGMLVVTAEITGKAFIMGFNTMLFDPTDPFKNGFTLKQ", "modifications": "left off: small tags and cut ends"}}, "key": {"[1]": {"tested_on": "spleen cells / Ig-producing B cells", "experiment": "Mitogenicity of rTcPA45 in vivo assessed by ELISPOT", "design": "species or system mouse", "method": "BALB/c mice were injected or not with 50 μg of rTcPA45 (i.p.), and spleen cells assayed day 7 after injection. Results represent total numbers of spleen cells, total number of B cells producing IgM, IgG2a, or IgG2b isotypes, and total numbers of isotype-producing B cells specific of the protein.\nMice were injected or not with 50 μg of iTcPA45 (i.p.). […] Numbers of Ig-secreting cells (total or specific to rTcPA45) were determined by Elispot assay, as follows:\nFlat bottomed 96 well ELISA plates, were coated with either goat anti-mouse Ig or with rTcPA45 and incubated at 4° C. overnight. Plates were blocked with PBS-gelatin, washed with PBS-Tween and with RPMI medium. 100 μl of different spleen cell concentrations per well (in RPMI containing 2% FCS) were incubated for 8 hours at 37° C., 5% CO2. A row in the plate containing serial dilutions of purified immunoglobulin (IgM, IgG2a, or IgG2b) was used as standard. After lysis of the cells with H20-Tween, plates were then washed with PBS-Tween and incubated with respective biotin-labeled antibodies directed to (IgM, IgG2b, or IgG2a isotypes), overnight at 4EC. After washing, plates were incubated for 45-60 minutes with avidin-alkaline phosphatase and further incubated with substrate (2-amino-2-methyl-propanol buffer containing BCIP) 2-4 hours, 37° C. (until the spots are “dark” blue). Spots correspond to immunoglobulin-producing B-cell (of a particular isotype) directed to the coated antigen (here: goat anti-mouse immunoglobulins or rTcPA45). Spots are then counted and numbers corrected to total number of spleen cells according to the dilution. (See Table I and FIG. 7.)"}, "[2]": {"tested_on": "Trypanosoma cruzi", "experiment": "rTcPA45 sub-mitogenic immunization followed by infective challenge, parasitemia", "format": "in vivo", "method": "FIG. 14B. rTcPA45 injection. 6 week old BALB/c mice were injected intraperitoneally (i.p.) with 10 ηg of rTcPA45 and then boosted i.p. one week later with 50 μg of rTcPA45. Mice were challenged 1 week after the boost with 10^4 infective forms of the parasite/mouse, and the parasitemia was scored during 30 days.\nAs with classical B cell mitogens, rTcPA45 mitogenicity is dose-dependent (FIG. 1). As for classical B cell mitogens, mouse specific immune responses directed to mitogenic rTcPA45 is indeed possible (Western blot FIG. 12) following a protocol of immunization which consisted of with 1 injection (i.p.) of a sub-mitogenic (10 ng/mouse) dose of the protein followed by an additional boost with a mitogenic dose of rTcPA45 (50 μg/mouse) one week later.\nThese additional results do support the claim that mitogenic moieties are potential targets for vaccination approaches against Trypanosoma cruzi infection. (See FIG. 14(b).)"}, "[3]": {"conditions": "BALB/c mice, 50 μg/mouse i.p., 7 days after injection"}}, "data": [{"molecule": "B1", "values": [{"measurement": "Ig-secreting B cells directed to TcPA45", "setting": "[1]; 50 μg rTcPA45 i.p., day 7", "value": "complete lack"}, {"measurement": "IgM secreting cells directed to the injected protein", "setting": "[1]; 50 μg rTcPA45 i.p., day 7", "value": "less than 0.5%"}, {"measurement": "increase in total numbers of Ig-secreting B cells (IgM, IgG2a, IgG2b isotypes)", "setting": "[1]; 50 μg rTcPA45 i.p., day 7", "value": "3-6 fold"}, {"measurement": "increase in total spleen cell numbers", "setting": "[1]; 50 μg rTcPA45 i.p., day 7", "value": 2, "unit": "fold"}, {"measurement": "increase in spleen cell numbers", "setting": "[1]; 50 μg rTcPA45 in vivo, by day 4", "value": 2, "unit": "fold"}, {"measurement": "rTcPA45-specific Ig-secreting B cells", "setting": "[1]; 50 μg rTcPA45 in vivo, day 4", "value": "complete lack"}, {"measurement": "Total Number of Ig-producing B cells ANTI-rTc45MIT: IgG2a-B cells anti 45", "setting": "[1]; [3]", "value": "none"}, {"measurement": "Total Number of Ig-producing B cells ANTI-rTc45MIT: IgG2b-B cells anti 45", "setting": "[1]; [3]", "value": "none"}, {"measurement": "Total Number of Ig-producing B cells ANTI-rTc45MIT: IgM-B cells anti 45", "setting": "[1]; [3]", "value": 84}, {"measurement": "Total Number of Ig-producing B cells: IgG2a-producing cells", "setting": "[1]; [3]", "value": "9866 ± 3000"}, {"measurement": "Total Number of Ig-producing B cells: IgG2b-producing cells", "setting": "[1]; [3]", "value": "14633 ± 3287"}, {"measurement": "Total Number of Ig-producing B cells: IgM-producing cells", "setting": "[1]; [3]", "value": "371666 ± 94495"}, {"measurement": "parasitemia control", "setting": "[2]; BALB/c mice, 10 ng i.p. then boost 50 μg i.p. one week later, challenge 10^4 parasites/mouse", "value": "90-95%"}, {"measurement": "parasitemia control compared with DNA vaccination (85% decrease)", "setting": "[2]; sub-mitogenic doses of active rTcPA45 intraperitoneally 2 weeks before infective challenge", "value": "even higher levels of parasitemia control"}]}]}
